The source of these data is paper PMC4893161, “The Dynamic Localization of Cytoplasmic Dynein in Neurons Is Driven by Kinesin-1” (Neuron, 2016).

Holding throughout (format): binding
The subject of one experiment is KIF5A, KIF5B, KIF5C. In words: Co-immunoprecipitation of DIC1a with myc-tagged KIF5 isoforms in COS cells. The note with it: IP anti-myc, Figure 4A.
For another experiment, the system named is KLC2. The experiment in a line: Co-immunoprecipitation of KLC2 versus KLC1 with mCherry-DIC1a in COS cells. To be noted: COS cell lysates, IP anti-mCherry, band intensity relative to KLC1, n = 4 experiments.
The test system of the next experiment is KIF5C stalk (561–774). In words: Co-immunoprecipitation of DIC1a with KIF5C head, stalk and tail constructs in COS cells. The note with it: IP anti-GFP, Figures 4B and 4C.

B1: DIC1a: neuron-specific dynein intermediate chain isoform, expressed in COS cells (protein)
chain: MSDKSDLKAELERKKQRLAQIREEKKRKEEERKKKEADMQQKKEPVPDDSDLDRKRRETEALLQSIGISPEPPLVQPLHFLTWDTCYFHYLVPTPMSPSSKSVSTPSEAGSQDDLGPLTRTLQWDTDPSVLQLQSDSELGRRLNKLGVSKVTQVDFLPREVVSYSKETQTPLATHQSEEDEEDEEMVEPKVGHDSELENQDKKQETKEAPPRELTEEEKQQILHSEEFLIFFDRTIRVIERALAEDSDIFFDYSGRELEEKDGDVQAGANLSFNRQFYDEHWSKHRVVTCMDWSLQYPELMVASYSNNEDAPHEPDGVALVWNMKFKKTTPEYVFHCQSSVMSVCFARFHPNLVVGGTYSGQIVLWDNRSHRRTPVQRTPLSAAAHTHPVYCVNVVGTQNAHNLITVSTDGKMCSWSLDMLSTPQESMELVYNKSKPVAVTGMAFPTGDVNNFVVGSEEGTVYTACRHGSKAGIGEVFEGHQGPVTGINCHMAVGPIDFSHLFVTSSFDWTVKLWTTKHNKPLYSFEDNADYVYDVMWSPVHPALFACVDGMGRLDLWNLNSDTEVPTASVAIEGAYALNRVRWAQGGKEVAVGDSEGRIWIYDVGELAVPHNDEWTRFARTLVEIRANRADSEEEGAVELAA
modifications: left off: mCherry, end not stated, kept
notes: neuron-specific dynein intermediate chain isoform, expressed in COS cells
As for B1, in the experiment with KIF5A, KIF5B, KIF5C, the “co-precipitation with all three KIF5 isoforms” value is “co-precipitated”. The “KLC2 relative to KLC1 co-immunoprecipitated with DIC1a” value in the experiment with KLC2 is listed as 5 fold. Further, in the experiment on KIF5C stalk (561–774), the “co-precipitation with stalk region of KIF5C” value is on record as “co-precipitated”.
